Experimental data published in patent publication US8981056.

Target: Aspergillus terreus LOVF Polyketide Synthase

B1: LovD G7 mutant (protein)
chain: MGSIIDAAAAAGPVVLMETAFRKAVESRQIPGAVIMARDASGNLNYTRCFGARTVRRDENNQLPPLQVDTPCRLASATKLLTTIMVLQCMERGLVDLDETVDRLLPDLSAMPVLEGFDDAGNARLRERRGKITLRHLLTHTSGLSYVFLHPLLREYMAQGYLQSAEKFGIQSRLAPPAVNDPGAEWIYGTNLDWAGKLVERATGLDLEQYLQENICAPLGITDMTFKLQQRPDMLARRADQTHRNSADGRLRYDDSVYFRADGEECFGGQGVFSSPGSYMKVLHSLLKRDGLLLQPQTVDLMFQPALEPRLEEQMNQHMDASPHINYGGPMPMFLRRSFGLGGIIALEDLDGENWRRKGSLTFGGGPNIVWQIDPKAGLCTLAFFQLEPWNDPVCRDLTRTFEHAIYAQYQQG
  activities towards LovF (kinetic assay for LVA synthesis with LovF as acyl donor): The G7 mutant exhibited a 27-fold decrease in activities towards LovF compared to the G0 parent
